Here are results for one molecule from patent US20140004536A1 (PERSEUS PROTEOMICS, published 2014).

This test concerns the target T1, human LY6D (human, UniProt Q14210 21-98, GPI anchor).
T1 construct: whole, on cells; On living cells for FCM, cell ELISA and microscopy; Solubilised from biotinylated cells with surfactant (or released by PI-PLC) for immunoprecipitation and western blot; also called E48 antigen
T1 sequence (looked up): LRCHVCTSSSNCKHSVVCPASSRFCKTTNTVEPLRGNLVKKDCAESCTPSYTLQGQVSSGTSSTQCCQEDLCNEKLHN
In words: confocal laser microscopy, cell ELISA and FCM on X-ray-irradiated MCF10A cells; the antigen is identified as LY6D later in the filing. On the technique in general: In an ELISA, binding on a coated surface is turned into a signal by an enzyme label.

Experimental: X-ray-irradiated cells and non-irradiated cells were prepared, and antibodies specific to the irradiated cells were screened for by cell ELISA. That is, reactivity of antibody to both cells was examined by ELISA. A blocking solution (5% skim milk/0.05% NaN₃/PBS) was added at 200 μL/well to both cells, followed by blocking at 37° C. for 2 hours. The blocking solution was removed and the cells were washed with PBS. The supernatant of the above antibody expression culture was added at 100 μL/well, followed by reaction at 37° C. for 1 hour. The resultant was washed five times with PBS. Rabbit anti-cp3 (1 μg/mL) diluted with PBS/0.05% Tween 20 was added at 100 μL/well, followed by reaction at 37° C. for 1 hour. The resultant was washed five times with PBS. Anti-Rabbit IgG (H+L)-HRP diluted 2000-fold with PBS/0.05% Tween 20 was further added at 100 μL/well, followed by reaction at 37° C. for 1 hour. The resultant was washed five times with PBS. […] Then, the absorbance at 492 nm was measured by SPECTRAmax340PC (Molecular Devices). Antibodies showing obvious positive reactivity specific to only the irradiated cells were selected and DNA sequences of the phages were analyzed.
Selection of clones from the antibody library was carried out as follows. […] The 20 candidates were analyzed by flow cytometry (FCM).

B1: E33-139 monoclonal antibody (scFv)
scFv: MAEVQLVESGGGLVQPGRSLRLSCAASGFTFDDYAMHWVRQAPGKGLEWVSGISWNSGSIGYADSVKGRFTISRDNAKNSLYLQMNSLRAEDTALYYCAKTGILDAFDIWGQGTTVTVSRGGGGSGGGGSGGGGSMAQSVLTQPPSVSGAPRQTVTISCSGSSSNIGQNSVTWYQRLPGEAPKLLIYYDDLLHSGVSDRFSGSKSGTSASLAISGLQSEDEAEYYCASWDDSLKGPVFGGGTKLTVLGQPKAAPSVTLFPPSSEELQANKATLVCLISDFYPGAVTVAWKADSSPVKAGVETTTPSKQSNNKYAASSYLSLTPEQWKSHKSYSCQVTHEGSTVEKTVAPTECSAR
notes: Human phage antibody from the AIMS5 library; No result is reported for the IgG; not shown: clones were tested as scFv-CL fused to cp3 or to the protein A domain (scFv-CL-P)
For B1, the binding result is given as “binds”.
